Data taken from article PMC9655642.

Test system: alpha-CTD (RNA polymerase alpha subunit C-terminal domain) (Bacillus licheniformis B1391)
Test: fluorescence polarization
Conditions: FP: 25 mM Tris-HCl, 3 mM NaCl, 3 mM MgCl2, 0.1 mM DTT, room temp 20 min, 100 nM probe, 30 ug protein in 100 uL; EMSA: 10 nM probe, 25 C 20 min; footprinting: …

Substance | binding signal (% polarization change (DPC))
PtrxA-UP5-5D (five distal subsite repeats) | 35
PtrxA-UP5-5P (five proximal subsite repeats) | 52
